Reference: patent US20180326084A1 (Genmab, published 2018)

Molecular target: T1, human AXL (full length) (human, UniProt P30530 26-894)
T1 construct: also called TH1021-AXL; TH1021-hAXL
Experiment: flow cytometry, HEK293T cells transiently transfected with human AXL

Row | Binder | EC50 (read off the curve) [µg/mL]
1 | IgG1-AXL-183 (antibody, V domains shown) VH: QVQLQQWGAGLLKPSETLSLTCAVYGGSFSGYYWSWIRQPPGKGLEWIGEINQSGSTNYNPSLKSRVTISVDTSKNQFSLKLSSVTAADTSVYYCASGNWDHFFDYWGQGTLVTVSS VL: DIQMTQSPSSVSASVGDRVTITCRASQGISSWLAWYQHKPGKAPKLLIYATSSLQSGVTSRFSGSGSGTDFTLTISSLQPEDFATYYCQQAKSFPWTFGQGTKVEIK | ~0.1
2 | IgG1-AXL-726 (antibody, V domains shown) VH: QVQLQQWGAGLLKPSETLSLTCAIDGGSFSGYYWSWIRQPPGKGLEWIGEISHSGRTNYNPSLKSRVTISIDTSKNQFSLKLSSVAAADTAVYYCARFITMIRGAIITHFDYWGQGALVTVSS VL: DIQMTQSPSSLSASVGDRVTITCRASQGISSWLAWYQQKPEKAPKSLIYAASSLQSGVPSRFSGSGSGTDFTLTISSLQPEDFATYYCQQYHSYPYTFGQGTKLEIK | ~0.09
